Bridge positions count the residues as written; N and C are the ends. Square brackets hold non-standard residues; d marks the D form. Ends that are not written are not given here.
Assays:
[1] = target: MCR1 receptor (on MCR1 receptor-expressing B16-F1 cells) (UniProt Q01727 1-315); test: cell-based or functional assay
ANP receptor (on ANP …) = target: ANP receptor (on ANP receptor-expressing LLC-PK1 cells); test: cell-based or functional assay

Chain of MCR1 receptor (on MCR1 receptor-expressing B16-F1 cells) (Q01727 whole entry): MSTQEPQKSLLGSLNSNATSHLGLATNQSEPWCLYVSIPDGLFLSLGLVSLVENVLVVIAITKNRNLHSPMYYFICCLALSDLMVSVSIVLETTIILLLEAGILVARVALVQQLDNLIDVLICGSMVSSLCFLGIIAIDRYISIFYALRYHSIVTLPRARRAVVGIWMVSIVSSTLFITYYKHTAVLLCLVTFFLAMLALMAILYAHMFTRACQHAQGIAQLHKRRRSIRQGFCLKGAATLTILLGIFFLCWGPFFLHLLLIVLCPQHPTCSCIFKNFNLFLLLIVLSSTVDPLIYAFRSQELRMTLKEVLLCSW

Binder	EC50 on the production of cAMP (BC16-F1 cells) [1] [nM]	EC50 on the production of cGMP (LLC-PK1 cells) (ANP receptor (on ANP …)) [nM]
Ac-H[dF]RWGRRSSCFGGRMDRIGAQSGLGCNSFRY-NH2 (disulfide 10-26; SMILES CC[C@H](C)[C@@H]1NC(=O)[C@H](CCCNC(=N)N)NC(=O)[C@H](CC(=O)O)NC(=O)[C@H](CCSC)NC(=O)[C@H](CCCNC(=N)N)NC(=O)CNC(=O)CNC(=O)[C@H](Cc2ccccc2)NC(=O)[C@@H](NC(=O)[C@H](CO)NC(=O)[C@H](CO)NC(=O)[C@H](CCCNC(=N)N)NC(=O)[C@H](CCCNC(=N)N)NC(=O)CNC(=O)[C@H](Cc2c[nH]c3ccccc23)NC(=O)[C@H](CCCNC(=N)N)NC(=O)[C@@H](Cc2ccccc2)NC(=O)[C@H](Cc2c[nH]cn2)NC(C)=O)CSSC[C@@H](C(=O)N[C@@H](CC(N)=O)C(=O)N[C@@H](CO)C(=O)N[C@@H](Cc2ccccc2)C(=O)N[C@@H](CCCNC(=N)N)C(=O)N[C@@H](Cc2ccc(O)cc2)C(N)=O)NC(=O)CNC(=O)[C@H](CC(C)C)NC(=O)CNC(=O)[C@H](CO)NC(=O)[C@H](CCC(N)=O)NC(=O)[C@H](C)NC(=O)CNC1=O) [bifunctional hormone of SEQ ID NO: 39]	11.5	52.1
Ac-HFRWGRRSSCFGGRMDRIGAQSGLGCNSFRY-NH2 (disulfide 10-26; SMILES CC[C@H](C)[C@@H]1NC(=O)[C@H](CCCNC(=N)N)NC(=O)[C@H](CC(=O)O)NC(=O)[C@H](CCSC)NC(=O)[C@H](CCCNC(=N)N)NC(=O)CNC(=O)CNC(=O)[C@H](Cc2ccccc2)NC(=O)[C@@H](NC(=O)[C@H](CO)NC(=O)[C@H](CO)NC(=O)[C@H](CCCNC(=N)N)NC(=O)[C@H](CCCNC(=N)N)NC(=O)CNC(=O)[C@H](Cc2c[nH]c3ccccc23)NC(=O)[C@H](CCCNC(=N)N)NC(=O)[C@H](Cc2ccccc2)NC(=O)[C@H](Cc2c[nH]cn2)NC(C)=O)CSSC[C@@H](C(=O)N[C@@H](CC(N)=O)C(=O)N[C@@H](CO)C(=O)N[C@@H](Cc2ccccc2)C(=O)N[C@@H](CCCNC(=N)N)C(=O)N[C@@H](Cc2ccc(O)cc2)C(N)=O)NC(=O)CNC(=O)[C@H](CC(C)C)NC(=O)CNC(=O)[C@H](CO)NC(=O)[C@H](CCC(N)=O)NC(=O)[C@H](C)NC(=O)CNC1=O) [bifunctional hormone of SEQ ID NO: 38]	259	6.9
MEHFRWGRRSSCFGGRMDRIGAQSGLGCNSFRY-NH2 (disulfide 12-28; N-terminus assumed; SMILES CC[C@H](C)[C@@H]1NC(=O)[C@H](CCCNC(=N)N)NC(=O)[C@H](CC(=O)O)NC(=O)[C@H](CCSC)NC(=O)[C@H](CCCNC(=N)N)NC(=O)CNC(=O)CNC(=O)[C@H](Cc2ccccc2)NC(=O)[C@@H](NC(=O)[C@H](CO)NC(=O)[C@H](CO)NC(=O)[C@H](CCCNC(=N)N)NC(=O)[C@H](CCCNC(=N)N)NC(=O)CNC(=O)[C@H](Cc2c[nH]c3ccccc23)NC(=O)[C@H](CCCNC(=N)N)NC(=O)[C@H](Cc2ccccc2)NC(=O)[C@H](Cc2c[nH]cn2)NC(=O)[C@H](CCC(=O)O)NC(=O)[C@@H](N)CCSC)CSSC[C@@H](C(=O)N[C@@H](CC(N)=O)C(=O)N[C@@H](CO)C(=O)N[C@@H](Cc2ccccc2)C(=O)N[C@@H](CCCNC(=N)N)C(=O)N[C@@H](Cc2ccc(O)cc2)C(N)=O)NC(=O)CNC(=O)[C@H](CC(C)C)NC(=O)CNC(=O)[C@H](CO)NC(=O)[C@H](CCC(N)=O)NC(=O)[C@H](C)NC(=O)CNC1=O) [bifunctional hormone of SEQ ID NO: 36]	49.1	33.1
Ac-H[dF]RWGKPMCHFGGRMDRISCYR-NH2 (disulfide 9-20; SMILES CC[C@H](C)[C@@H]1NC(=O)[C@H](CCCNC(=N)N)NC(=O)[C@H](CC(=O)O)NC(=O)[C@H](CCSC)NC(=O)[C@H](CCCNC(=N)N)NC(=O)CNC(=O)CNC(=O)[C@H](Cc2ccccc2)NC(=O)[C@H](Cc2c[nH]cn2)NC(=O)[C@@H](NC(=O)[C@H](CCSC)NC(=O)[C@@H]2CCCN2C(=O)[C@H](CCCCN)NC(=O)CNC(=O)[C@H](Cc2c[nH]c3ccccc23)NC(=O)[C@H](CCCNC(=N)N)NC(=O)[C@@H](Cc2ccccc2)NC(=O)[C@H](Cc2c[nH]cn2)NC(C)=O)CSSC[C@@H](C(=O)N[C@@H](Cc2ccc(O)cc2)C(=O)N[C@@H](CCCNC(=N)N)C(N)=O)NC(=O)[C@H](CO)NC1=O) [bifunctional hormone of SEQ ID NO: 31]	20.9	74.3

Now from value to binder:

EC50 on the production of cAMP (BC16-F1 cells) [1] [nM]	EC50 on the production of cGMP (LLC-PK1 cells) (ANP receptor (on ANP …)) [nM]	Binder
6	502	Ac-EH[dF]RWGRRSSCFGGRMDRIGAQSGLGCNSFRY-NH2 (disulfide 11-27; SMILES CC[C@H](C)[C@@H]1NC(=O)[C@H](CCCNC(=N)N)NC(=O)[C@H](CC(=O)O)NC(=O)[C@H](CCSC)NC(=O)[C@H](CCCNC(=N)N)NC(=O)CNC(=O)CNC(=O)[C@H](Cc2ccccc2)NC(=O)[C@@H](NC(=O)[C@H](CO)NC(=O)[C@H](CO)NC(=O)[C@H](CCCNC(=N)N)NC(=O)[C@H](CCCNC(=N)N)NC(=O)CNC(=O)[C@H](Cc2c[nH]c3ccccc23)NC(=O)[C@H](CCCNC(=N)N)NC(=O)[C@@H](Cc2ccccc2)NC(=O)[C@H](Cc2c[nH]cn2)NC(=O)[C@H](CCC(=O)O)NC(C)=O)CSSC[C@@H](C(=O)N[C@@H](CC(N)=O)C(=O)N[C@@H](CO)C(=O)N[C@@H](Cc2ccccc2)C(=O)N[C@@H](CCCNC(=N)N)C(=O)N[C@@H](Cc2ccc(O)cc2)C(N)=O)NC(=O)CNC(=O)[C@H](CC(C)C)NC(=O)CNC(=O)[C@H](CO)NC(=O)[C@H](CCC(N)=O)NC(=O)[C@H](C)NC(=O)CNC1=O) [bifunctional hormone of SEQ ID NO: 42]
9.8	7000	SLRRSSCFGGRMDRIGAQSGLGCNSFRYHXRW (disulfide bridge between C residues at positions 7 and 23; D-Phe (f) at position 30; C-terminal amidation (NH2)) [bifunctional hormone of SEQ ID NO: 40]
